The experiment deals with T1, GST-Flag-SASPase 28 kDa recombinant protein (human) (UniProt Q53RT3).
T1 sequence: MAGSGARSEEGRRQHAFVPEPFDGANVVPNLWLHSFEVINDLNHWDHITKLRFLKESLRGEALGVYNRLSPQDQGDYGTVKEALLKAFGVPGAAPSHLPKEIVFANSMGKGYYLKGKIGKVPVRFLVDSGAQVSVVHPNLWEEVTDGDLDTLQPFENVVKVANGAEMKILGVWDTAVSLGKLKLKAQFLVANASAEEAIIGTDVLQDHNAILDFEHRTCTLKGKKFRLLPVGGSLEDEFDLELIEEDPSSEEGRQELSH

B1: recombinant protein FLG2Nter (aa 2-213) (domain or fragment)
chain: TDLLRSVVTVIDVFYKYTKQDGECGTLSKGELKELLEKELHPVLKNPDDPDTVDVIMHMLDRDHDRRLDFTEFLLMIFKLTMACNKVLSKEYCKASGSKKHRRGHRHQEEESETEEDEEDTPGHKSGYRHSSWSEGEEHGYSSGHSRGTVKCRHGSNSRRLGRQGNLSSSGNQEGSQKRYHRSSCGHSWSGGKDRHGSSSVELRERINKSHI
As to B1, the SASPase activity on Dabcyl-QIDRIMEK-Glu(Edans)-NH2 (0.1 mM), pH 5.5, 0.5 μM SASPase 28, FLG2Nter at ratios from 1.25 to 10; fold against the protease alone was 10 fold.
